The target of data set [1] is Gag (Human immunodeficiency virus 1) (UniProt O93182). The conditions noted are these: cited from earlier work.
The subject of data set [2] is Δ1 SP1 Gag (HIV-1 (isolate BH10)). Description: MST.
The test system of data set [3] is WM Gag (HIV-1 (isolate BH10)). Description: MST.

We go through three substances from article PMC7232488.

The Kd is the constant that tells how readily two partners part at equilibrium.

Gag, sequence (O93182 2-500): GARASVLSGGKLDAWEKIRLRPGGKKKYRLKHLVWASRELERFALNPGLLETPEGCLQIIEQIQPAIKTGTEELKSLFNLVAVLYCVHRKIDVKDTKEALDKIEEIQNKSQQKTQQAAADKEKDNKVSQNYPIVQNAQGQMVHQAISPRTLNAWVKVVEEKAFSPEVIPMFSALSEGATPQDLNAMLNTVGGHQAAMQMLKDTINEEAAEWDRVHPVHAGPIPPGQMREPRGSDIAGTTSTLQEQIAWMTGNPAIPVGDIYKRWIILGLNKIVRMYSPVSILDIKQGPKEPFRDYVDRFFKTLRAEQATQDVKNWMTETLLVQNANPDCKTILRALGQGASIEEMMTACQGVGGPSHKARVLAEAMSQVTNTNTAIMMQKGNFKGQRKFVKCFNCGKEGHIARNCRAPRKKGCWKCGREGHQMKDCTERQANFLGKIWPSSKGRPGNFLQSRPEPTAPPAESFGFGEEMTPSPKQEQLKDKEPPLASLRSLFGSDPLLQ

As for Gag (from UniProt O93182), the Kd in data set [1] was 5.5 µM.

Consider reverse complement RNA (non-Ψ control), for which the binding signal (fold difference vs WT Gag) in data set [2] is 2.

The substance Ψ RNA yielded a binding signal (fold decrease in affinity vs WT Gag) in data set [3] of 3.5. Moreover, in data set [2], the binding signal (fold difference vs WT Gag) is 2.
